Test system: T1, SbfI restriction endonuclease (R.SbfI) (Streptomyces species Bf-61)
T1 sequence: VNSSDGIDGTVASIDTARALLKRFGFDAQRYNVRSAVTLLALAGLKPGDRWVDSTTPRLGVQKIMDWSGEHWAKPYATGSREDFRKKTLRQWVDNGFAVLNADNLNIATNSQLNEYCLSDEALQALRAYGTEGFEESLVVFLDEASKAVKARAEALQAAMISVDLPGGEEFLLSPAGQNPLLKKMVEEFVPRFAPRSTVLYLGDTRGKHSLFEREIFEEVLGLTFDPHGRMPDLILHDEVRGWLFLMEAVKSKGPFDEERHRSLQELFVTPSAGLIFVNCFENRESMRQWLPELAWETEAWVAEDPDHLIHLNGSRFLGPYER
Assay: cleavage_in_vitro
Settings: recombinant cell extract, serial dilutions 1x to 1/64; yield more than about 10^5 units per gram wet E. coli cells; recognition sequence not given

For “lambda DNA (printed as "I DNA") restriction substrate”, the activity (U/g wet cells) was 100000.
